Starred links: 1 amine or outer side, 2 acyl side, 3 side chain; linkers in the order of their positions; H or OH if unused. Non-standard residues stand in square brackets, D forms with d. Groups on a side chain read outwards from the residue. No end group written: not given here. *: point of attachment. C20 diacid = O=C(O)CCCCCCCCCCCCCCCCCCC(=O)*; C18 diacid = O=C(O)CCCCCCCCCCCCCCCCC(=O)*; γGlu = O=C(O)[C@H](CCC(=O)[*:2])N[*:1]; εLys = N[C@@H](CCCCN[*:1])C(=O)[*:2]; AEEA = NCCOCCOCC(=O)O; Aib = CC(C)(N)C(=O)O
T1: NPY2 receptor (human (printed as hNPY2R), UniProt P49146 1-381)
T1 sequence (looked up): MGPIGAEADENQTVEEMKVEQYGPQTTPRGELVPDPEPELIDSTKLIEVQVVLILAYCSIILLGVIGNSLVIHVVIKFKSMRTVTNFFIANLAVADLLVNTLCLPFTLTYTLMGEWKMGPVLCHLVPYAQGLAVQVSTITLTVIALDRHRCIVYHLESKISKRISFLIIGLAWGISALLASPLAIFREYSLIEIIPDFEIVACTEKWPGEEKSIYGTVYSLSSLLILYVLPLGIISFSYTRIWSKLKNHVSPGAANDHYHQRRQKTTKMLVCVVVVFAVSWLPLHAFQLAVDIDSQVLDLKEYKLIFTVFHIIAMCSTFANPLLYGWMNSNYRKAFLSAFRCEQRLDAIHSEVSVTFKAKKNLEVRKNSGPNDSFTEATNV

T2: GIP receptor (human (printed as hGIPR), UniProt P48546 22-466)
T2 sequence (looked up): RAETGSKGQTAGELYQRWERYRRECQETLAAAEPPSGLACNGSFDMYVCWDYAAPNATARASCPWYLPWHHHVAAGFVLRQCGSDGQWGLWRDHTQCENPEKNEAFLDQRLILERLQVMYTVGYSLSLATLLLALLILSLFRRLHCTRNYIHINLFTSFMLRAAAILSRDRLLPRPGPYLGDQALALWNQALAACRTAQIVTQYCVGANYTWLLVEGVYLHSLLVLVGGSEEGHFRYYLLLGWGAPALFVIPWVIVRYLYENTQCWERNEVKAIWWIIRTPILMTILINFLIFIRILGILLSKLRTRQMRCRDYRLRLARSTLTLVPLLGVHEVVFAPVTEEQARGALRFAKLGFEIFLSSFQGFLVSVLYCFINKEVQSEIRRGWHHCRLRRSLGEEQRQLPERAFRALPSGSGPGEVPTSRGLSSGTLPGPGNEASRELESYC

B1: Compound 208 (peptide)
peptide: YXEGTFTSDYSIXLEKQAQXAFVEWLIKGGPSSGASLRHYYNWLTRXRY
modifications: Aib at 2, 13, 20; bHGln (beta-homo-L-glutamine) at 47; K28 side chain carries C20DA-gGlu-gGlu-gGlu-gGlu-gGlu-gGlu-eLys; C-terminal amide
B2: Compound 209 (peptide)
peptide: YXEGTFTSDYSIXLELQAQXAFVEWLIKGGPSSGASLRHYYNWLTRQRY
modifications: Aib at 2, 13, 20; K28 side chain carries C20DA-gGlu-gGlu-gGlu-gGlu-gGlu-gGlu-eLys; C-terminal amide
B3: Compound 211 (peptide)
peptide: YXEGTFTSDYSIXLEKQAQDAFVEWLIKGGPSSGASLRHYYNWLTRQRY
modifications: Aib at 2, 13; D-Asp at 20; K28 side chain carries C20DA-gGlu-gGlu-gGlu-gGlu-gGlu-gGlu-eLys; C-terminal amide
B4: Compound 213 (peptide)
peptide: YXEGTFTSDYSIXLEKQAQXAFVEWLIKGGPSSGASLRHYYXWLTRQRY
modifications: Aib at 2, 13, 20, 42; K28 side chain carries C20DA-gGlu-gGlu-gGlu-gGlu-gGlu-gGlu-eLys; C-terminal amide
B5: Compound 214 (peptide)
peptide: YXEGTFTSDYSIXLEKQAQXAFVEWLIKGGPSSGASLRHYYNWLTRQRY
modifications: Aib at 2, 13, 20; D-Tyr at 49; K28 side chain carries C20DA-gGlu-gGlu-gGlu-gGlu-gGlu-gGlu-eLys; C-terminal amide
B6: Compound 210 (peptide)
peptide: YXEGTFTSDYSIXLEKQAQXAFVEWLIKGGPSSGASLLHYYNWLTRQRY
modifications: Aib at 2, 13, 20; K28 side chain carries C20DA-gGlu-gGlu-gGlu-gGlu-gGlu-gGlu-eLys; C-terminal amide

Key:
Experiment in all cases: cell-based or functional assay
NPY2 receptor = target: T1, NPY2 receptor
GLP-1 receptor = GLP-1 receptor (human (printed as hGLP1R), UniProt P43220 24-463)
GIP receptor = target: T2, GIP receptor

Binder	EC50 hNPY2R 0.5% hP (CreLuc) (NPY2 receptor)	EC50 hNPY2R 100% hP (CreLuc) (NPY2 receptor)	EC50 hGLP1R 0.5% hP (CreLuc) (GLP-1 receptor)	EC50 hGLP1R 100% hP (CreLuc) (GLP-1 receptor)	EC50 hGIPR 0.5% hP (CreLuc) (GIP receptor)	EC50 hGIPR 100% hP (CreLuc) (GIP receptor)
Y[Aib]EGTFTSDYSI[Aib]LEKQAQ[Aib]AFVEWLIKGGPSYYASLRHYYNWLTRQRY-NH2 (not fully specified (residue 28); also: TFA salt) [Compound 203]	9.07 nM	54.1 nM	0.33 nM	27 nM	0.5 nM	12.4 nM
B1	> 100 nM	> 1000 nM	0.11 nM	1.51 nM	0.07 nM	0.81 nM
B2	35.2 nM	171 nM	0.48 nM	16.7 nM	0.81 nM	8.57 nM
B3	11.2 nM	56.3 nM	0.74 nM	25.9 nM	0.85 nM	9.79 nM
B4	> 100 nM	> 1000 nM	0.16 nM	3.03 nM	0.34 nM	1.53 nM
B5	> 99.9 nM	283 nM	0.19 nM	2.65 nM	0.23 nM	1.81 nM
B6	54.1 nM	430 nM	0.19 nM	3.39 nM	0.28 nM	2.3 nM
Y[Aib]EGTFTSDYSI[Aib]LEKQAQ[Aib]AFVEWLIKGGPEEPASLRHYYNWLTRQRY-NH2 (not fully specified (residue 28); also: TFA salt) [Compound 206]	13.4 nM	61.7 nM	0.43 nM	17.2 nM	0.25 nM	2.61 nM
Y[Aib]EGTFTSDYSI[Aib]LEKQAE[Aib]AFVQWLIK([εLys-γGlu-γGlu-γGlu-γGlu-γGlu-C20 diacid])GGPSEGASLRHYYNWLTRQRY-NH2 (also: TFA salt) [Compound 200]	12.1 nM	64.3 nM	0.48 nM	25.8 nM	0.37 nM	3.56 nM
Y[Aib]EGTFTSDYSI[Aib]LEKQAQ[Aib]AFVEWLIKGGPSSGASLRHYYNW[dD]TRQRY-NH2 (not fully specified (residue 28); also: TFA salt) [Compound 204]	> 99.9 nM	> 999 nM	0.12 nM	3.14 nM	0.35 nM	2.88 nM
Y[Aib]EGTFTSDYSI[Aib]LEKQAQ[Aib]AFVEWLIKGGPSSGVSLRHYYNWLTRQRY-NH2 (not fully specified (residue 28); also: TFA salt) [Compound 212]	13.5 nM	122 nM	0.11 nM	3.69 nM	0.24 nM	1.83 nM
Y[Aib]EGTFTSDYSI[Aib]LEKQAQ[Aib]EFVEWLIKGGPSSGASLRHYYNWLTRQRY-NH2 (not fully specified (residue 28); also: TFA salt) [Compound 201]	16.3 nM	31 nM	0.28 nM	10.4 nM	0.49 nM	1.03 nM
Y[Aib]EGTFTSDYSI[Aib]LEKQAQ[Aib]EFVQWLIK([γGlu-γGlu-γGlu-γGlu-C18 diacid])GGPSEGASLRHYYNWLTRQRY-NH2 (also: TFA salt) [Compound 202]	12.9 nM	64.5 nM	0.21 nM	10.4 nM	0.26 nM	1.81 nM
Y[Aib]EGTFTSDYSI[Aib]LE[Aib]QAQ[Aib]AFVEWLIKGGPSSGASLRHYYNWLTRQRY-NH2 (not fully specified (residue 28); also: TFA salt) [Compound 199]	30 nM	106 nM	1.26 nM	13.8 nM	0.94 nM	5.5 nM
Y[Aib]EGTFTSDYSI[Aib]LEKQAQ[Aib]EFVQWLIKGGPSEGASLRHYYNWLTRQRY-NH2 (not fully specified (residue 28); also: TFA salt) [Compound 207]	11 nM	50.3 nM	0.36 nM	12.7 nM	0.63 nM	1.66 nM
Y[Aib]EGTFTSDYSI[Aib]LEKQAQ[Aib]EFVEWLIKGGPSSGASLRHYYNWLTRQRY-NH2 (not fully specified (residue 28); also: TFA salt) [Compound 198]	13.1 nM	69.9 nM	0.47 nM	15.8 nM	0.26 nM	5.01 nM
Y[Aib]EGTFTSDYSI[Aib]LEKQAQ[Aib]EFVEWLIK([AEEA-AEEA-γGlu-γGlu-γGlu-γGlu-C20 diacid])GGPSSGASLRHYYNWLTRQRY-NH2 (also: TFA salt) [Compound 205]	10.6 nM	37.7 nM	0.44 nM	12.3 nM	0.33 nM	1.87 nM

— patent US20240247080A1, “GLP1/GIP/NPY2 RECEPTOR TRIPLE AGONISTS” (Boehringer Ingelheim International GmbH, priority 2022, published 2024)
